According to paper PMC5717070:

Molecular target: Solanum tuberosum aspartic protease plant-specific insert (saposin-like domain), recombinant (Solanum tuberosum)
Assay: AUC; sedimentation equilibrium, 26-28 uM PSI, 27 mM sodium phosphate pH 3.0, 140 mM NaCl, 20 °C, single ideal species model; monomer to dimer

stoichiometry N: 2
Substance: Solanum tuberosum aspartic protease plant-specific insert (saposin-like domain), recombinant (domain or fragment)
